Assay results: patent publication US20120207760A1

B1: TCN-504 (3251_K17) (antibody, V domains shown)
VH: QVQLQESGPGLVKPSETLSLTCAVSGVSISNIDFYWGWIRQPPGKGLEWIGNIYYTGITFYNPSLSSRVAISIDTSKNQFSLTLTSVTAADTAMYYCARHYGDSEAINDAFDIWGQGTMLTVSS
VL: EIVMTQSPATLSVSPGERATLSCRASQSVGNSLAWYQQRPGQAPRLLIYGASTRATGIPPRFSGSGSGTEFTLTISSLQTEDFAVYYCQQYINWRPLSFGGGTKVEIK
B2: TCN-523 (5248_A17) (antibody, V domains shown)
VH: QVQLVQSGAEVKKPGSSVKVSCKASGGSFSNYAFSWVRQAPGQGLEWMGGTIPLLGTTNYAQKFQGRVTISADQFTSTAYMELGSLRSEDTAVYYCTRRKMTTAFDSWGQGTLVTVSS
VL: QPVLTQPPSASASLGASVTLTCTLSSAYSNYKVDWYQQRPGKGPRFVMRVGTGGIVGSKGDGIPDRFSVLGSGLNRYLTIKNIQEEDESDYHCGADHGSGSNFVSPYVFGGGTKLTVL

Key:
Conditions in all cases: remark: other sources report otherwise
[1] = molecular target: T1, recombinant homotrimeric HA, A/Wisconsin/67/05 H3N2 (Influenza A virus A/Wisconsin/67/05 (H3N2)); assay: trimeric HA microarray, transfection set 4
[2] = molecular target: recombinant homotrimeric HA, A/Anhui/1/05 H5N1 (Influenza A virus A/Anhui/1/05 (H5N1)); assay: trimeric HA microarray, transfection set 3
[3] = molecular target: T2, recombinant homotrimeric HA, A/Netherlands/219/03 H7N7 (Influenza A virus A/Netherlands/219/03 (H7N7)); assay: trimeric HA microarray, transfection set 3
[4] = molecular target: T3, recombinant homotrimeric HA, A/duck/Yangzhou/02/05 H8N4 (Influenza A virus A/duck/Yangzhou/02/2005 (H8N4)); assay: trimeric HA microarray, transfection set 3
[5] = molecular target: T1, recombinant homotrimeric HA, …; assay: trimeric HA microarray, transfection set 3
[6] = molecular target: T2, recombinant homotrimeric HA, …; assay: trimeric HA microarray, transfection set 1
[7] = molecular target: T3, recombinant homotrimeric HA, …; assay: trimeric HA microarray, transfection set 1
[8] = molecular target: T1, recombinant homotrimeric HA, …; assay: trimeric HA microarray, transfection set 1
[9] = molecular target: T4, recombinant homotrimeric HA, A/Hong Kong/1073/99 H9N2 (Influenza A virus A/Hong Kong/1073/99 (H9N2)); assay: trimeric HA microarray, transfection set 3
[10] = molecular target: recombinant homotrimeric HA, A/northern shoveler/California/HKWF115/07 (Influenza A virus A/northern shoveler/California/HKWF115/2007 (H6N1)); assay: trimeric HA microarray, transfection set 3
[11] = molecular target: T4, recombinant homotrimeric HA, A/Hong …; assay: trimeric HA microarray, transfection set 1

Binder | Trimeric HA Binding RLU [1] | Trimeric HA Binding RLU [2] | Trimeric HA Binding RLU [3] | Trimeric HA Binding RLU [4] | Trimeric HA Binding RLU [5] | Trimeric HA Binding RLU [6] | Trimeric HA Binding RLU [7] | Trimeric HA Binding RLU [8] | Trimeric HA Binding RLU [9] | Trimeric HA Binding RLU [10] | Trimeric HA Binding RLU [11]
B1 | 20600 RLU | 30000 RLU | 19600 RLU | 19600 RLU | 21400 RLU | 23800 RLU | 28900 RLU | 14300 RLU |  |  | 
B2 |  |  |  |  |  |  |  |  | 24200 RLU | 29400 RLU | 21700 RLU
